Reference: publication PMC12382605, “Dominant negative ADA2 mutations cause ADA2 deficiency in heterozygous carriers” (The Journal of Experimental Medicine, 2025)
Positions count from the first letter of the chain named. Numbers in names are those of the source. One block for each binder: values may come before it.

Assays:
[1] = biological target: the molecule itself; experiment: native gel or EMSA; supernatant of HEK293T transfected with one ADA2 construct (homozygous condition), collected after 48 h; NativePAGE 4-16% Bis-Tris, western blot with anti-ADA2; dimer band quantified relative to WT100%
[2] = biological target: T1, human WT ADA2, myc-FLAG-tagged (pCMV6) (human, UniProt Q9NZK5-1 30-511); experiment: cell-based or functional assay
T1 sequence (looked up): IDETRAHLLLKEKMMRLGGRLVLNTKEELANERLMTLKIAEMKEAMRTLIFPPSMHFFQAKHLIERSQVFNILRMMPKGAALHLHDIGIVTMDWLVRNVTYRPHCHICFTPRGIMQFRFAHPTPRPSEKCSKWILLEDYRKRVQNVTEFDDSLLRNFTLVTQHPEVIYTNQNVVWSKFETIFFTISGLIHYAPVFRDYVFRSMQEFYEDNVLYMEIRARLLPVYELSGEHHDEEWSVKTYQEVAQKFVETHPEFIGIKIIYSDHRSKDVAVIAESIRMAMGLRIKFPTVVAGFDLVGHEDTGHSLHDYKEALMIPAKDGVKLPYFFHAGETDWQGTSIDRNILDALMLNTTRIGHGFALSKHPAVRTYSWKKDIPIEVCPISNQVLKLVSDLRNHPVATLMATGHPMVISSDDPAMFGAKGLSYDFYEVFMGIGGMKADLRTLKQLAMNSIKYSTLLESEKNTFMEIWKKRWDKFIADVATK

adenosine deaminase activity of the supernatant of HEK293T cotransfected with WT and variant ADA2 (heterozygous), relative to WT50% [2]: 58 % of WT50%
B2: ADA2 variant G47V, myc-FLAG-tagged (pCMV6) (enzyme, human, UniProt Q9NZK5-1 30-511, looked up)
chain: T1 sequence (looked up) with G18V

adenosine deaminase activity of whole-cell lysate and supernatant of HEK293T cotransfected with WT and variant ADA2 (heterozygous), relative to WT50% [2]: 41 % of WT50%
B6: ADA2 variant Y453C, myc-FLAG-tagged (pCMV6) (enzyme, human, UniProt Q9NZK5-1 30-511, looked up)
chain: T1 sequence (looked up) with Y424C

adenosine deaminase activity of whole-cell lysate and supernatant of HEK293T cotransfected with WT and variant ADA2 (heterozygous), relative to WT50% [2]: < 75 % of WT50%
B7: ADA2 variant G47R, myc-FLAG-tagged (pCMV6) (enzyme, human, UniProt Q9NZK5-1 30-511, looked up)
chain: T1 sequence (looked up) with G18R
notes: adenosine deaminase 2 (ADA2), human; site-directed mutant of the WT clone of transcript 3, NM_001282225 (OriGene RC238645); Patient variant; also called p.G47R; source: HEK293T, transfected; in supernatant and whole-cell lysate
residual dimer in the supernatant (% of WT100%) [1]: ~53 % of WT100%

More lines, now with the values behind:

B1: ADA2 variant G47A, myc-FLAG-tagged (pCMV6) (enzyme, human, UniProt Q9NZK5-1 30-511, looked up)
chain: T1 sequence (looked up) with G18A
notes: adenosine deaminase 2 (ADA2), human; site-directed mutant of the WT clone of transcript 3, NM_001282225 (OriGene RC238645); Pathogenic variant that occurs in patients; also called p.G47A; source: HEK293T, transfected; in supernatant and whole-cell lysate
residual dimer in the supernatant (% of WT100%) [1]: ~48 % of WT100% | adenosine deaminase activity of whole-cell lysate and supernatant of HEK293T cotransfected with WT and variant ADA2 (heterozygous), relative to WT50% [2]: < 75 % of WT50%

B3: ADA2 variant R169Q, myc-FLAG-tagged (pCMV6) (enzyme, human, UniProt Q9NZK5-1 30-511, looked up)
chain: T1 sequence (looked up) with R140Q
adenosine deaminase activity of the supernatant of HEK293T cotransfected with WT and variant ADA2 (heterozygous), relative to WT50% [2]: 23 % of WT50%

B4: ADA2 variant E328K, myc-FLAG-tagged (pCMV6) (enzyme, human, UniProt Q9NZK5-1 30-511, looked up)
chain: T1 sequence (looked up) with E299K
adenosine deaminase activity of whole-cell lysate and supernatant of HEK293T cotransfected with WT and variant ADA2 (heterozygous), relative to WT50% [2]: < 75 % of WT50%

B5: ADA2 variant G47W, myc-FLAG-tagged (pCMV6) (enzyme, human, UniProt Q9NZK5-1 30-511, looked up)
chain: T1 sequence (looked up) with G18W
notes: adenosine deaminase 2 (ADA2), human; site-directed mutant of the WT clone of transcript 3, NM_001282225 (OriGene RC238645); Pathogenic variant that occurs in patients; source: HEK293T, transfected, in supernatant
residual dimer in the supernatant (% of WT100%) [1]: ~9 % of WT100%
